Assay results taken from patent US20080213284A1.
Where two headings read alike, the source gives them in different places.

What was measured:
[1] = biological target: receptor on VERO E6 cells (not identified in the filing); experiment: FACS competition against S2-Fc (330 ng/mL) on VERO E6 cells; agent at 1 µg/mL
[2] = biological target: receptor on VERO E6 cells (not identified in the filing); experiment: FACS competition against S2-Fc (330 ng/mL) on VERO E6 cells; agent at 10 µg/mL
[3] = biological target: receptor on VERO E6 cells (not identified in the filing)

Substance | Percent of Inhibition [1] [%] | Percent of Inhibition [2] [%] | Percent of Inhibition [3] [%]
Negative control (blocking agent) | 0 | 0 | 0
recombinant RBD2 (from UniProt P59594 284-735) | 100 | 100 | 100
